In publication PMC6361964, “A transcription factor PU.1 is critical for Ccl22 gene expression in dendritic cells and macrophages”:

B1: Site 1 probe, mouse Ccl22 promoter (dsDNA)
DNA 1: GGCTGGGGGAAGTGGGAC
DNA 2: GTCCCACTTCCCCCAGCC
B2: Site 2 probe, mouse Ccl22 promoter (dsDNA)
DNA 1: GTGGGACTTCTTCTTTCAG
DNA 2: CTGAAAGAAGAAGTCCCAC
B3: Site 1&2 probe, mouse Ccl22 promoter (dsDNA)
DNA 1: CGCTGGGGGAAGTGGGACTTCTTCTTTCAG
DNA 2: CTGAAAGAAGAAGTCCCACTTCCCCCAGCG

Biological target: PU.1 (UniProt P17433 1-272)
Test: EMSA; anti-PU.1 Ab control; EMSA in 5% acrylamide gels with fluorescence detection; buffer, salt, pH and temperature not in the material
Details: protein: ivt; label: FLO (fluorescent)

Binding result, binds:
B1
B2
B3
